Assay [1] deals with E. fergusonii BrxB WT (Escherichia fergusonii). The assay is described as follows: SEC; analytical SEC of E. fergusonii BrxB alone, 10 μM in 100 μl, Superdex 75 increase 10/300 GL, 20 mM Tris HCl pH 7.9, 150 mM NaCl; monomer and dimer. Background: In gel filtration, larger molecules generally elute earlier.
The target is the same in assay [2]. The assay is described as follows: native MS; collected BrxB SEC peaks exchanged into 10 mM ammonium bicarbonate, 0.5 mg/ml, positive ion electrospray time-of-flight MS; monomer and dimer.

As a reminder, the stoichiometry N is a count of units in the complex or per binding partner.

For E. fergusonii BrxB WT (natural protein), the stoichiometry N in assay [1] and in assay [2] was 2 each time.
